From patent US20230391828A1, “REGULATORS OF CELL DIVISION” (TECHNISCHE UNIVERSITÄT DRESDEN, priority 2020, published 2023)
Bridge positions count the residues as written; N and C are the ends. Square brackets hold non-standard residues; d marks the D form. R8 = C=CCCCCCC[C@@](C)(N)C(=O)O; S5 = C=CCCC[C@](C)(N)C(=O)O

Assays:
[1] = target: recombinant human APC/C (Strep-tagged APC4), expressed in SF9 cells (human) (UniProt Q9NYG5); assay: cell-based or functional assay
[2] = target: recombinant human APC/C (Strep-tagged APC4), expressed in SF9 cells (human) (UniProt Q9NYG5); assay: inhibitory constant calculated with a model for non-competitive inhibition (Prism 6.0) from the in vitro APC/C ubiquitination assay (UBE2C, securin titration, with or without 3 µM G3-6)

Sequence of recombinant human APC/C (Strep-tagged APC4), expressed in SF9 cells (human) (Q9NYG5 whole entry, chain 1 of 2): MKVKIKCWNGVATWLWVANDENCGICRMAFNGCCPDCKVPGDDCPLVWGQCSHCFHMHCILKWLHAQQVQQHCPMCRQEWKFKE
Sequence of recombinant human APC/C (Strep-tagged APC4), expressed in SF9 cells (human) (Q9UJX5 whole entry, chain 2 of 2, further chain): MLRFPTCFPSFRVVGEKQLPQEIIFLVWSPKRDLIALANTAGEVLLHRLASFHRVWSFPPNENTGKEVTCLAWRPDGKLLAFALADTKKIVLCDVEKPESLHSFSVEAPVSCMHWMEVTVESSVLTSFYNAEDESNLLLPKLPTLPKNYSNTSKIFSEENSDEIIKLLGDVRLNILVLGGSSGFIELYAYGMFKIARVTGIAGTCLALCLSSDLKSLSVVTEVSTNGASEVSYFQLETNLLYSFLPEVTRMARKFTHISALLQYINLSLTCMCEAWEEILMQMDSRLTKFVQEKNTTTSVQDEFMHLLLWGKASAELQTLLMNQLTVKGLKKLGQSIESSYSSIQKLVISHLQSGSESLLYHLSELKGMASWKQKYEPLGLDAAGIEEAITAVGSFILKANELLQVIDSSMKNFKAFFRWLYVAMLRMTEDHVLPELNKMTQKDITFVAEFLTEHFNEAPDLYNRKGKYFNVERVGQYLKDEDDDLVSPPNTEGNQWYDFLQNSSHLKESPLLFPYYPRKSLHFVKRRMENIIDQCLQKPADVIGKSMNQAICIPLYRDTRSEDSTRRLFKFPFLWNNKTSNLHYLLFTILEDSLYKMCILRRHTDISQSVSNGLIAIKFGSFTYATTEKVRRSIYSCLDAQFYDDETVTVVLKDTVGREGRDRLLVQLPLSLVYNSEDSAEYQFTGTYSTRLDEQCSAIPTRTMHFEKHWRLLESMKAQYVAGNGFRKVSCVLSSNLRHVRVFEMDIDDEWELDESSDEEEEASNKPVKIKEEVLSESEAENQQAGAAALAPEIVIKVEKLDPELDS

IC50, in vitro APC/C ubiquitination assay (UBE2C, securin, methylated ubiquitin, 0.01-100 µM G3-6, 10 min) [1]: 1.96 µM | Ki [2]: 5 µM
B1: G3-6, Ac-cyclo(4,11)-EWWZIKEIQRXRRA-NH2 (peptide)
peptide: Ac-EWW[R8]IKEIQR[S5]RRA-NH2
modifications: staple 4-11
SMILES: CC[C@H](C)[C@@H]1NC(=O)[C@H](CCC(=O)O)NC(=O)[C@H](CCCCN)NC(=O)[C@H]([C@@H](C)CC)NC(=O)[C@](C)(NC(=O)[C@H](Cc2c[nH]c3ccccc23)NC(=O)[C@H](Cc2c[nH]c3ccccc23)NC(=O)[C@H](CCC(=O)O)NC(C)=O)CCCCCCC=CCCC[C@@](C)(C(=O)N[C@@H](CCCNC(=N)N)C(=O)N[C@@H](CCCNC(=N)N)C(=O)N[C@@H](C)C(N)=O)NC(=O)[C@H](CCCNC(=N)N)NC(=O)[C@H](CCC(N)=O)NC1=O
